# Experimental data published in patent US20030229005A1.
# How the values were obtained:
# Test in all cases: cell-based or functional assay
# [1] = target: human Collagenase-3 (human) (UniProt P45452)
# [2] = target: human Gelatinase-A (human) (UniProt P08253)
# stromelysin 1 = stromelysin 1 (UniProt P08254)
# Chain of stromelysin 1 (P08254 100-477 limits assumed): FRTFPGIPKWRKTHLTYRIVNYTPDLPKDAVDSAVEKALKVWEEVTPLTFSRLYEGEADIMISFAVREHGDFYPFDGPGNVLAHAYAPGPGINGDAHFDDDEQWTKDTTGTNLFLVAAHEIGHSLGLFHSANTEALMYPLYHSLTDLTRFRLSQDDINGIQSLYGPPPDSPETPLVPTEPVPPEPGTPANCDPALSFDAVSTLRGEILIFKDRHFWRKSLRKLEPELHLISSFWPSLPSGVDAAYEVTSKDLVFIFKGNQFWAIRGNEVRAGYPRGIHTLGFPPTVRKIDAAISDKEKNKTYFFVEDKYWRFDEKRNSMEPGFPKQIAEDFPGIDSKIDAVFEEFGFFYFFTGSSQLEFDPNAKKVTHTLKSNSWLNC
# Chain of human Gelatinase-A (human) (P08253 110-660 limits assumed): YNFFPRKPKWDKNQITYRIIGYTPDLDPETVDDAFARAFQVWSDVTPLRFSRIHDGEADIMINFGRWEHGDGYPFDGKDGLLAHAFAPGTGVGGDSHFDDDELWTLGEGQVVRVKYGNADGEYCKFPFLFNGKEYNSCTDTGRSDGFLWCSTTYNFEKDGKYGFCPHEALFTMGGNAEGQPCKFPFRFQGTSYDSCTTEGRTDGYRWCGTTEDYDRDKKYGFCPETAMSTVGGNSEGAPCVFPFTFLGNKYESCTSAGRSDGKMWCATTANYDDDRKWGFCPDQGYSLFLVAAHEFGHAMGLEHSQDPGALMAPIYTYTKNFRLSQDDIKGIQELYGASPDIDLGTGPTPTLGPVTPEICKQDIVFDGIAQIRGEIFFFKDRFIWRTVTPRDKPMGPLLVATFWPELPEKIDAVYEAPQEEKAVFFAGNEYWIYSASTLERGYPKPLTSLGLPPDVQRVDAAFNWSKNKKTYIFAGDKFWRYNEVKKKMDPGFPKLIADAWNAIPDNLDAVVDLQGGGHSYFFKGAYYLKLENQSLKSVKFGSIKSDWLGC
substance,measurement,setting,value
bovine type II collagen (from UniProt P02459 182-1241),"Average Percent Inhibition, 2.10-3.10 h, TypeIICOL 44 ug/ul",[1],-71%
same,"Average Percent Inhibition, 2.10-3.10 h, TypeIICOL .18 ug/ul",[1],-10%
same,"Average Percent Inhibition, 2.10-3.10 h, TypeIICOL .55 ug/ul",[1],-15%
same,"Average Percent Inhibition, 3.10-4.10 h, TypeIICOL 1.6 ug/ul",[1],-13%
same,"Average Percent Inhibition, 3.10-4.10 h, TypeIICOL 4.9 ug/ul",[1],-31%
same,"Average Percent Inhibition, 3.10-4.10 h, TypeIICOL 15 ug/ul",[1],-50%
same,"Average Percent Inhibition, 3.10-4.10 h, TypeIICOL 44 ug/ul",[1],-60%
same,"Average Percent Inhibition, 3.10-4.10 h, TypeIICOL .18 ug/ul",[1],-8%
same,"Average Percent Inhibition, 3.10-4.10 h, TypeIICOL .55 ug/ul",[1],-12%
same,"Average Percent Inhibition, 4.10-5.10 h, TypeIICOL 1.6 ug/ul",[1],-12%
same,"Average Percent Inhibition, 4.10-5.10 h, TypeIICOL 4.9 ug/ul",[1],-25%
same,"Average Percent Inhibition, 4.10-5.10 h, TypeIICOL 15 ug/ul",[1],-41%
same,"Average Percent Inhibition, 4.10-5.10 h, TypeIICOL 44 ug/ul",[1],-49%
same,"Average Percent Inhibition, 4.10-5.10 h, TypeIICOL .18 ug/ul",[1],-7%
same,"Average Percent Inhibition, 4.10-5.10 h, TypeIICOL .55 ug/ul",[1],-10%
same,"Average Percent Inhibition, 5.10-6.10 h, TypeIICOL 1.6 ug/ul",[1],-11%
same,"Average Percent Inhibition, 5.10-6.10 h, TypeIICOL 4.9 ug/ul",[1],-21%
same,"Average Percent Inhibition, 5.10-6.10 h, TypeIICOL 15 ug/ul",[1],-34%
same,"Average Percent Inhibition, 5.10-6.10 h, TypeIICOL 44 ug/ul",[1],-41%
same,"Average Percent Inhibition, 5.10-6.10 h, TypeIICOL .18 ug/ul",[1],-6%
same,"Average Percent Inhibition, 5.10-6.10 h, TypeIICOL .55 ug/ul",[1],-10%
same,"Average Percent Inhibition from 1.1 to 6.6 Hours, Type II Collagen 0.18 ug/ml",[2],2%
same,"Average Percent Inhibition from 1.1 to 6.6 Hours, Type II Collagen 0.54 ug/ml",[2],6%
same,"Average Percent Inhibition from 1.1 to 6.6 Hours, Type II Collagen 1.63 ug/ml",[2],-52%
same,"Average Percent Inhibition from 1.1 to 6.6 Hours, Type II Collagen 4.89 ug/ml",[2],32%
same,"Average Percent Inhibition from 1.1 to 6.6 Hours, Type II Collagen 14.67 ug/ml",[2],56%
same,"Average Percent Inhibition from 1.1 to 6.6 Hours, Type II Collagen 44.00 ug/ml",[2],83%
same,"Average Percent Inhibition, 0.10-1.10 h, TypeIICOL 1.6 ug/ul",[2],-27%
same,"Average Percent Inhibition, 0.10-1.10 h, TypeIICOL 4.9 ug/ul",[2],37%
same,"Average Percent Inhibition, 0.10-1.10 h, TypeIICOL 15 ug/ul",[2],56%
same,"Average Percent Inhibition, 0.10-1.10 h, TypeIICOL 44 ug/ul",[2],58%
same,"Average Percent Inhibition, 0.10-1.10 h, TypeIICOL .18 ug/ul",[2],3%
same,"Average Percent Inhibition, 0.10-1.10 h, TypeIICOL .55 ug/ul",[2],2%
same,"Average Percent Inhibition, 1.10-2.10 h, TypeIICOL 1.6 ug/ul",[2],4%
same,"Average Percent Inhibition, 1.10-2.10 h, TypeIICOL 4.9 ug/ul",[2],43%
same,"Average Percent Inhibition, 1.10-2.10 h, TypeIICOL 15 ug/ul",[2],64%
same,"Average Percent Inhibition, 1.10-2.10 h, TypeIICOL 44 ug/ul",[2],78%
same,"Average Percent Inhibition, 1.10-2.10 h, TypeIICOL .18 ug/ul",[2],9%
same,"Average Percent Inhibition, 1.10-2.10 h, TypeIICOL .55 ug/ul",[2],11%
same,"Average Percent Inhibition, 2.10-3.10 h, TypeIICOL 1.6 ug/ul",[2],-11%
same,"Average Percent Inhibition, 2.10-3.10 h, TypeIICOL 4.9 ug/ul",[2],46%
same,"Average Percent Inhibition, 2.10-3.10 h, TypeIICOL 15 ug/ul",[2],70%
same,"Average Percent Inhibition, 2.10-3.10 h, TypeIICOL 44 ug/ul",[2],86%
same,"Average Percent Inhibition, 2.10-3.10 h, TypeIICOL .18 ug/ul",[2],7%
same,"Average Percent Inhibition, 2.10-3.10 h, TypeIICOL .55 ug/ul",[2],12%
same,"Average Percent Inhibition, 3.10-4.10 h, TypeIICOL 1.6 ug/ul",[2],-37%
same,"Average Percent Inhibition, 3.10-4.10 h, TypeIICOL 4.9 ug/ul",[2],37%
same,"Average Percent Inhibition, 3.10-4.10 h, TypeIICOL 15 ug/ul",[2],64%
same,"Average Percent Inhibition, 3.10-4.10 h, TypeIICOL 44 ug/ul",[2],87%
same,"Average Percent Inhibition, 3.10-4.10 h, TypeIICOL .18 ug/ul",[2],3%
same,"Average Percent Inhibition, 3.10-4.10 h, TypeIICOL .55 ug/ul",[2],8%
same,"Average Percent Inhibition, 4.10-5.10 h, TypeIICOL 1.6 ug/ul",[2],-68%
same,"Average Percent Inhibition, 4.10-5.10 h, TypeIICOL 4.9 ug/ul",[2],27%
same,"Average Percent Inhibition, 4.10-5.10 h, TypeIICOL 15 ug/ul",[2],53%
same,"Average Percent Inhibition, 4.10-5.10 h, TypeIICOL 44 ug/ul",[2],85%
same,"Average Percent Inhibition, 4.10-5.10 h, TypeIICOL .18 ug/ul",[2],0%
same,"Average Percent Inhibition, 4.10-5.10 h, TypeIICOL .55 ug/ul",[2],4%
same,"Average Percent Inhibition, 5.10-6.10 h, TypeIICOL 1.6 ug/ul",[2],-104%
same,"Average Percent Inhibition, 5.10-6.10 h, TypeIICOL 4.9 ug/ul",[2],19%
same,"Average Percent Inhibition, 5.10-6.10 h, TypeIICOL 15 ug/ul",[2],41%
same,"Average Percent Inhibition, 5.10-6.10 h, TypeIICOL 44 ug/ul",[2],82%
same,"Average Percent Inhibition, 5.10-6.10 h, TypeIICOL .18 ug/ul",[2],-3%
same,"Average Percent Inhibition, 5.10-6.10 h, TypeIICOL .55 ug/ul",[2],-1%
same,"Average Percent Inhibition from 1.1 to 6.6 Hours, Type II Collagen 0.18 ug/ml",stromelysin 1,15%
same,"Average Percent Inhibition from 1.1 to 6.6 Hours, Type II Collagen 0.54 ug/ml",stromelysin 1,13%
same,"Average Percent Inhibition from 1.1 to 6.6 Hours, Type II Collagen 1.63 ug/ml",stromelysin 1,19%
same,"Average Percent Inhibition from 1.1 to 6.6 Hours, Type II Collagen 4.89 ug/ml",stromelysin 1,12%
same,"Average Percent Inhibition from 1.1 to 6.6 Hours, Type II Collagen 14.67 ug/ml",stromelysin 1,18%
same,"Average Percent Inhibition from 1.1 to 6.6 Hours, Type II Collagen 44.00 ug/ml",stromelysin 1,19%
same,"Average Percent Inhibition, 0.10-1.10 h, TypeIICOL 1.6 ug/ul",stromelysin 1,-10%
same,"Average Percent Inhibition, 0.10-1.10 h, TypeIICOL 4.9 ug/ul",stromelysin 1,50%
same,"Average Percent Inhibition, 0.10-1.10 h, TypeIICOL 15 ug/ul",stromelysin 1,57%
same,"Average Percent Inhibition, 0.10-1.10 h, TypeIICOL 44 ug/ul",stromelysin 1,62%
same,"Average Percent Inhibition, 0.10-1.10 h, TypeIICOL .18 ug/ul",stromelysin 1,22%
same,"Average Percent Inhibition, 0.10-1.10 h, TypeIICOL .55 ug/ul",stromelysin 1,43%
same,"Average Percent Inhibition, 1.10-2.10 h, TypeIICOL 1.6 ug/ul",stromelysin 1,24%
same,"Average Percent Inhibition, 1.10-2.10 h, TypeIICOL 4.9 ug/ul",stromelysin 1,23%
same,"Average Percent Inhibition, 1.10-2.10 h, TypeIICOL 15 ug/ul",stromelysin 1,28%
same,"Average Percent Inhibition, 1.10-2.10 h, TypeIICOL 44 ug/ul",stromelysin 1,32%
same,"Average Percent Inhibition, 1.10-2.10 h, TypeIICOL .18 ug/ul",stromelysin 1,22%
same,"Average Percent Inhibition, 1.10-2.10 h, TypeIICOL .55 ug/ul",stromelysin 1,26%
same,"Average Percent Inhibition, 2.10-3.10 h, TypeIICOL 1.6 ug/ul",stromelysin 1,22%
same,"Average Percent Inhibition, 2.10-3.10 h, TypeIICOL 4.9 ug/ul",stromelysin 1,11%
same,"Average Percent Inhibition, 2.10-3.10 h, TypeIICOL 15 ug/ul",stromelysin 1,18%
same,"Average Percent Inhibition, 2.10-3.10 h, TypeIICOL 44 ug/ul",stromelysin 1,18%
same,"Average Percent Inhibition, 2.10-3.10 h, TypeIICOL .18 ug/ul",stromelysin 1,15%
same,"Average Percent Inhibition, 2.10-3.10 h, TypeIICOL .55 ug/ul",stromelysin 1,14%
same,"Average Percent Inhibition, 3.10-4.10 h, TypeIICOL 1.6 ug/ul",stromelysin 1,18%
same,"Average Percent Inhibition, 3.10-4.10 h, TypeIICOL 4.9 ug/ul",stromelysin 1,8%
same,"Average Percent Inhibition, 3.10-4.10 h, TypeIICOL 15 ug/ul",stromelysin 1,14%
same,"Average Percent Inhibition, 3.10-4.10 h, TypeIICOL 44 ug/ul",stromelysin 1,14%
same,"Average Percent Inhibition, 3.10-4.10 h, TypeIICOL .18 ug/ul",stromelysin 1,12%
same,"Average Percent Inhibition, 3.10-4.10 h, TypeIICOL .55 ug/ul",stromelysin 1,10%
same,"Average Percent Inhibition, 4.10-5.10 h, TypeIICOL 1.6 ug/ul",stromelysin 1,17%
same,"Average Percent Inhibition, 4.10-5.10 h, TypeIICOL 4.9 ug/ul",stromelysin 1,8%
same,"Average Percent Inhibition, 4.10-5.10 h, TypeIICOL 15 ug/ul",stromelysin 1,13%
same,"Average Percent Inhibition, 4.10-5.10 h, TypeIICOL 44 ug/ul",stromelysin 1,14%
same,"Average Percent Inhibition, 4.10-5.10 h, TypeIICOL .18 ug/ul",stromelysin 1,12%
same,"Average Percent Inhibition, 4.10-5.10 h, TypeIICOL .55 ug/ul",stromelysin 1,8%
same,"Average Percent Inhibition, 5.10-6.10 h, TypeIICOL 1.6 ug/ul",stromelysin 1,16%
same,"Average Percent Inhibition, 5.10-6.10 h, TypeIICOL 4.9 ug/ul",stromelysin 1,8%
same,"Average Percent Inhibition, 5.10-6.10 h, TypeIICOL 15 ug/ul",stromelysin 1,14%
same,"Average Percent Inhibition, 5.10-6.10 h, TypeIICOL 44 ug/ul",stromelysin 1,14%
same,"Average Percent Inhibition, 5.10-6.10 h, TypeIICOL .18 ug/ul",stromelysin 1,12%
same,"Average Percent Inhibition, 5.10-6.10 h, TypeIICOL .55 ug/ul",stromelysin 1,8%
